The data set concerns the molecule itself. Nature of the data set: release from hydrogel.

Experimental findings from publication PMC11440629 (Advanced Functional Materials, 2023) are described below.

B1: NT2RepCT (other)
chain: MSHTTPWTNPGLAENFMNSFMQGLSSMPGFTASQLDDMSTIAQSMVQSIQSLAAQGRTSPNKLQALNMAFASSMAEIAASEEGGGSLSTKTSSIASAMSNAFLQTTGVVNQPFINEITQLVSMFAQAGMNDVSAGNSGRGQGGYGQGSGGNAAAAAAAAAAAAAAAGQGGQGGYGRQSQGAGSAAAAAAAAAAAAAAGSGQGGYGGQGQGGYGQSGNSVTSGGYGYGTSAAAGAGVAAGSYAGAVNRLSSAEAASRVSSNIAAIASGGASALPSVISNIYSGVVASGVSSNEALIQALLELLSALVHVLSSASIGNVSSVGVDSTLNVVQDSVGQYVG
As to B1, the binding result is on record as “binds”.
